Results taken from publication PMC6919569.

What was measured:
[1] = biological target: T1, NF-kB p65 (RelA), recombinant (Homo sapiens, UniProt Q04206 1-551); experiment: competition EMSA
[2] = biological target: T1, NF-kB p65 (RelA), recombinant; experiment: EMSA, supershift

T1 sequence (Q04206 whole entry): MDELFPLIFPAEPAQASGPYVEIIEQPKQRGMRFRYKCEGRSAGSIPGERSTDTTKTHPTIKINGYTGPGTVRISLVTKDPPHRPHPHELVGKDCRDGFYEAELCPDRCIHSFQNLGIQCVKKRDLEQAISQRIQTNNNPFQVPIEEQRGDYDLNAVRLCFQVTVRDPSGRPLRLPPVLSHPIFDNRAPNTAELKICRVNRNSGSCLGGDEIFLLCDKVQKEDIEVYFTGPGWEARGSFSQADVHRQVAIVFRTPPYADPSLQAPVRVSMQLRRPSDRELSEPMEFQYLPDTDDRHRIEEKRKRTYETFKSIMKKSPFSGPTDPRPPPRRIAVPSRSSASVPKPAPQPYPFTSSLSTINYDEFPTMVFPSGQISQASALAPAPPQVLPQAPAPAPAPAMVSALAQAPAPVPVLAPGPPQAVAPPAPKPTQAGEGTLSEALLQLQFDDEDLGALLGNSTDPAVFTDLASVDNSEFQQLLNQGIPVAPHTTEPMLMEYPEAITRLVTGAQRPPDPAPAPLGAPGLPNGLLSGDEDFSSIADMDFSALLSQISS

B1: Mutant 2 (… to CCCTTAAGGG) (dsDNA)
DNA 1: CTGTGCTCCCTTAAGGGTTAGCTCC
DNA 2: GGAGCTAACCCTTAAGGGAGCACAG
binding result [1]: no binding

B2: PLCB2 -1652/-1628 WT NF-kB probe (dsDNA)
DNA 1: CTGTGCTGGGAATTCCCTTAGCTCC
DNA 2: GGAGCTAAGGGAATTCCCAGCACAG
binding result [2]: binds

B3: Mutant 1 (NF-kB site deleted) (dsDNA)
DNA 1: CTGTGCTTTAGCTCC
DNA 2: GGAGCTAAAGCACAG
binding result [1]: no binding
